The text below walks through data of paper PMC4914108 (Nucleic Acids Research, 2016).

First the molecules themselves.
T1: RacA from FL crystals (proteolyzed) (Bacillus subtilis, UniProt P45870 1-64)
T1 sequence: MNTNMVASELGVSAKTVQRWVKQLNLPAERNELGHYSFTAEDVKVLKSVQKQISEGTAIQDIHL

T2: RacA DBD K15A (Bacillus subtilis, UniProt P45870 1-70, K15A)
T2 sequence: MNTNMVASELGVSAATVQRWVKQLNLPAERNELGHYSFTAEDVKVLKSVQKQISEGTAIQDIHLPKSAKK

T3: RacA FL (Bacillus subtilis, UniProt P45870 1-184)
T3 sequence: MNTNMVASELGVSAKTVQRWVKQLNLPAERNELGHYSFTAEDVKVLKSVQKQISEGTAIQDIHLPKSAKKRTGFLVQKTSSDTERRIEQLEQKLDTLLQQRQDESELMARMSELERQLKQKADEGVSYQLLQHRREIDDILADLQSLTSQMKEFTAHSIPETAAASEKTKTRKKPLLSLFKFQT

T4: RacA DBD (Bacillus subtilis, UniProt P45870 1-70)
T4 sequence: T2 sequence with A15K

T5: RacA DBD R30A (Bacillus subtilis, UniProt P45870 1-70, R30A)
T5 sequence: T2 sequence with A15K, R30A

T6: RacA C-domain (Bacillus subtilis, UniProt P45870 71-184)
T6 sequence: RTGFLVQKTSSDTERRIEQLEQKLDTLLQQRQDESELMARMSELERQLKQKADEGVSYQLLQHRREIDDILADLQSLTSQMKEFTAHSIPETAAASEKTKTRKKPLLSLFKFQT

B1: RacA C-terminal region, RacA(71-184) (domain or fragment, B. subtilis, UniProt P45870 71-184, looked up)
chain: T6 sequence
B2: 14mer ram site, 5-bromouracil (dsDNA)
DNA 1: TGACGCCGGCGTCA
DNA 2: TGACGCCGGCGTCA
modifications: thymines replaced with 5-bromouracil
B3: 14mer ram centromere site (FP) (dsDNA)
DNA 1: TGACGCCGGCGTCA
DNA 2: TGACGCCGGCGTCA
B4: DivIVA C-terminal domain, DivIVA(66-164) (domain or fragment, B. subtilis, UniProt P71021 66-164, looked up)
chain: TLNKSILVAQEAAEDVKRNSQKEAKLIVREAEKNADRIINESLSKSRKIAMEIEELKKQSKVFRTRFQMLIEAQLDLLKNDDWDHLLEYEVDAVFEEKE

The target in series [1] is B4. The series can be described thus: ITC.
In series [2] the target is T1, RacA from FL crystals (proteolyzed). The series can be described thus: X-ray crystallography.
For series [3], the target named is T2, RacA DBD K15A. Description: fluorescence polarization.
Series [4] addresses T3, RacA FL. The series can be described thus: fluorescence polarization.
Series [5] addresses T4, RacA DBD. Description: fluorescence polarization.
Series [6] has as its target T5, RacA DBD R30A. Description: fluorescence polarization.
The target in series [7] is T6, RacA C-domain. The series can be described thus: fluorescence polarization.
For series [8], the target named is B1. Description: ITC.
Series [9] addresses B1. Description: ITC. This is another data set of the same source.

Where a chain is given by its changes, count along the chain named. Like-named read-outs stand apart in the source and are kept apart here.

Consider B1, for which the “stoichiometry N” value in series [1] amounted to 1.

B2: the binding result in [2] is “binds”.

For B3, the Kd in [3] was around 50 µM; in series [4] it was 0.0584 ± 0.0003 µM; in series [5] it was 9.2 ± 4 µM; in series [6], around 50 µM. In addition, the binding result in [7] is “no binding”.

Turning to B4, the Kd turned out to be 1.9 µM in series [8] and 1.5 µM in series [9]. Further, the “stoichiometry N” value in [9] amounted to 1.
